We go through 41 sequences from the nanobody polyreactivity screen of Harvey et al. (2022).

The data set in a line: yeast display, Sf9 membrane polyspecificity reagent, FACS + sequencing; frameworks hold sequencing errors. In short, it runs like this:
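A synthetic nanobody library was expressed on Saccharomyces cerevisiae BJ5465 by galactose induction for 36–48 hours. The library was stained for 1 hour at 4 °C with 10% biotinylated, detergent-solubilized Sf9 membrane reagent and enriched with streptavidin microbeads before FACS. Low and high (top ~1%) gates were set on anti-HA fluorescence for expression and streptavidin fluorescence for reagent binding, and each polyreactivity label reflects the gate of origin.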
Turning to “QVQLVESGGGLVQAGGSLRLSCAASGSIFQYYPMGWYRQAPGKERELVAAINSGGRTNYADSVKGRFTISRDNAKNTVYLQMNSLKPEDTAVYYCAKRLSTRASFGEEDSWGQGTQVTVSS”, the “polyreactivity (PSR sort gate)” value was “low polyreactivity”.

Regarding “QVQLVESGGGLVQAGGSLRLSCAASGSIFRAYAMGWYRQAPGKERELVAAISWGGGSTSYADSVKGRFTLSRDNAKNTVYLQMNSLNPEDTAVYYCNKVSLSKRRDYYWGQGTQVTVSS”, the “polyreactivity (PSR sort gate)” value is recorded as “high polyreactivity”. For “QVQLVESGGGLVQAGGSLRLSCAASGSIFRAYAMGWYRQAPGKERELVAAITWSGGRTFYADSVKGRFTISRDNAKNTVYLQMNSLKPEDTAVYYCAAFVYQRGRIYDYWGQGTQVTVSS”, the “polyreactivity (PSR sort gate)” value is given as “high polyreactivity”.

For “QVQLVESGGGLVQAGGSLRLSCAASGSIFRAYAMGWYRQAPGKERELVAGITKSGGSTYYADSVKGRFTISRDHAKNTVYLQMNSLKPEDTAVYYCAAYRSRTYGYWGQGTQVTVSS”, the “polyreactivity (PSR sort gate)” value was “high polyreactivity”.

In the case of “QVQLVESGGGLVQAGGSLRLSCAASGSIFRDYVMGWYRQAPGKERELVAAISGNDGSTYYADSVKGRFTISRDNAKNTVYLQLNSLKPEDTAVYYCNADEASTFPQFYSYLDFDYWGQGTQVTVSS”, the “polyreactivity (PSR sort gate)” value is listed as “low polyreactivity”. Consider “QVQLVESGGGLVQAGGSLRLSCAASGSIFRFYAMGWYIQAPGKERELVAGITWSGASTYYADSVKGRFTISRDNAKNTVYLQMNSLKPEDNAVYYCSAKSLIVRYDSWGQGTQVTVSS”, for which the “polyreactivity (PSR sort gate)” value is listed as “high polyreactivity”. As for “QVQLVESGGGLVQAGGSLRLSCAASGSIFRFYTMGWYRQAPGKERELVASITWTGGSTYYADSVKGRFTISRDNAKNTVYLQMNSLKPEDTAVYYCAARRYRRLVGRYDYWGQGTQVTVSS”, the “polyreactivity (PSR sort gate)” value is reported as “low polyreactivity”. In the case of “QVQLVESGGGLVQAGGSLRLSCAASGSIFRFYVMGWYRQAPGKEREMVAAISIGGSTNYADSVKGRFTISLDNAKNTVFLQMNSLKPEDTAVYYCAADYWYGAGMPHGTEFDYWGQGTQVTVSS”, the “polyreactivity (PSR sort gate)” value is on record as “low polyreactivity”. To “QVQLVESGGGLVQAGGSLRLSCAASGSIFRGNAMGWYRQAPGKERELDATISNGGSTNYADAVKGRFTISRDNAKNTVYLQMNSLKPEDTAVYYCAKPLYKTWWGYAYDYWGQGTQVTVSS” belongs “high polyreactivity”; to “QVQLVESGGGLVQAGGSLRLSCAASGSIFRGNAMGWYRQAPGKERELVAGINRAGSTKYADSVKGRFTISRDNAKNTVYLLMNSLKPEETAVYYCAARGYSSEYDYWGKGTQVTVSS”, “high polyreactivity”. Regarding “QVQLVESGGGLVQAGGSLRLSCAASGSIFRGNAMGWYRQAPGKERELVAVITWSGGSTYYADSVKGRFTISRDNAKNTVYLQMNSLKPEDTAVYYCNAARKQRVYFAGDYWGQGTQVTVSS”, the “polyreactivity (PSR sort gate)” value is “high polyreactivity”. For the sequence “QVQLVESGGGLVQAGGSLRLSCAASGSIFRGNGMGWYRQAPGKERELVAAISRSGGRTYYADSVKGRFTISRDNAKNTVYLQMNSLKPEDTAVYYCNAARTYQYDYWGQGTQVTVSS”, the “polyreactivity (PSR sort gate)” value is “high polyreactivity”.

As to “QVQLVESGGGLVQAGGSLRLSCAASGSIFRGYAMGCYRQAPGKERELVAAITSGGSTNYADSVKGRFTISRDNAKNTVYLQMNSLKPEDTAVYYCAKDLALVAPLSDYWGQGTQVTVSS”, the “polyreactivity (PSR sort gate)” value was “low polyreactivity”. Then “QVQLVESGGGLVQAGGSLRLSCAASGSIFRGYAMGWYRQAPGKERELVAAINTSGGRTYYADSVKGRFTISRDNAKNTVYLQMNSLKPEDTAVYYCATEYYQAKREDYWGQGTQVTVSS”, with “high polyreactivity”. Take “QVQLVESGGGLVQAGGSLRLSCAASGSIFRGYAMGWYRQAPGKERELVAAISIGGRTYYADSVKGRFTISRDNAKNTVYLQMNSLKPEDTAVYYCAVQKPKTGKGKKDTYGRDGYWGQGTQVTVSS”: the “polyreactivity (PSR sort gate)” value is recorded as “high polyreactivity”. In the case of “QVQLVESGGGLVQAGGSLRLSCAASGSIFRGYAMGWYRQAPGKGRELVAAISWSGASTYYADSVKGRFTISRDNAKNTVYLQMNSLKPEDTAVYYCAAVQWTGYPFDYWGQGTQVTVSS”, the “polyreactivity (PSR sort gate)” value is listed as “high polyreactivity”. To “QVQLVESGGGLVQAGGSLRLSCAASGSIFRGYDMGWYRQPPGKERELVAAISRSGGITYYADSVKGRFTISRDNAKNTVYLNMNSLKPEVTAVYYCAASRAGGYYGKGYSWGQGTQVTVSS” belongs “high polyreactivity”; to “QVQLVESGGGLVQAGGSLRLSCAASGSIFRGYGMGWYRQAPGKERELVAAITSGDSTNYADSVKARFTLSRDNAKTTVYLQMNSLKPEDTAVNYCAAASTGRPSVSYDYWGQGTQVTVSS”, “low polyreactivity”; to “QVQLVESGGGLVQAGGSLRLSCAASGSIFRGYSMGWYRQAPGKERELVAAINTSGGRTYYADSVKGRFTISRDNAKNTVYLQMNSLKPEDTAVFYCATEYYQAKREDYWGQGTQVTVSS”, “high polyreactivity”. Consider “QVQLVESGGGLVQAGGSLRLSCAASGSIFRGYTLGWYRQAPGKERELVAAISTRGGSTYYADSVKGRFTISRDNANNTVYLQMNSLKPEDTAVYYCNARSRGRASGYDYWGQVTQVTVSS”, for which the “polyreactivity (PSR sort gate)” value is “high polyreactivity”.

Regarding “QVQLVESGGGLVQAGGSLRLSCAASGSIFRINAMGWYRQAPGKERELVAAITRSGGSTFYADSVKGRFTISRDNAKNTVYLQMNSLKPEDTAVYYCAAVWYYSTVPARYEYWGQGTQVTVSS”, the “polyreactivity (PSR sort gate)” value is reported as “low polyreactivity”.

As for “QVQLVESGGGLVQAGGSLRLSCAASGSIFRIYAKGWYRQAPGKERELVAAISSTGSTSYADSVKGRFTISRDNAKNTVYLQMNSLKPEDTAVYYCAAGVYALRRDYWVQGTQVTVSS”, the “polyreactivity (PSR sort gate)” value was “low polyreactivity”. Then “QVQLVESGGGLVQAGGSLRLSCAASGSIFRIYAMGWYRPAPGKERELVAAISRGGGSTYYADSVKGRFTISRDNAKNTVYLQMNSLKPEDTAVYYCAARSPYRYYYWGQGTQVTVSS”, with “high polyreactivity”; and “QVQLVESGGGLVQAGGSLRLSCAASGSIFRIYAMGWYRQAPGKERELVAGISKSGGSTYYADSVKGRFTISRDNAKNTVYLQMNSLKPEDTAVYYCAAGYYYFWTYDYWGQGTQVTVSS”, with “low polyreactivity”; and “QVQLVESGGGLVQAGGSLRLSCAASGSIFRKNAMGWYRQAPGKERELVAAITGTGRTTYADSEKGRFTISRDNAKNTVYLQMNSLKPEDTAVYYCAADVNYYQHRLYYWGQGTQVSVSS”, with “low polyreactivity”.

With “QVQLVESGGGLVQAGGSLRLSCAASGSIFRKYTMGWYRQAPGKERELVAAISGTAGRTYYADSVKGRFTISRDNAKNTVYLQMNSLKPEDTAVYYCAARRFGGYGYNYWGQGTQVTVSS”, the “polyreactivity (PSR sort gate)” value is given as “high polyreactivity”. To “QVQLVESGGGLVQAGGSLRLSCAASGSIFRLYALGWYRQAPGKERELVAAISRRGGSTNYADSVKGRFTISRDNAKNTVYFQMNSLKPEDTAVYYCARDVDTHYPYAYDYWGQGTQVTVSS” belongs “high polyreactivity”.

Turning to “QVQLVESGGGLVQAGGSLRLSCAASGSIFRNYAMGWYRQAPGKERELVAAITSIGGGTYYADSVKGRFTISRDNAKNTVYLQMNSLKPEDTAVYYCAAVSGPFVQTSGNGEYDYWGQGTQVTVSS”, the “polyreactivity (PSR sort gate)” value was “low polyreactivity”. To “QVQLVESGGGLVQAGGSLRLSCAASGSIFRPNTMGWYRQAPGKERELVAAINWSGDDTYYADSVKGRFTISRDNAKNTVYLQMNSLKPEDTAVYYCAVDLFDGVTKLNYDYWGQGTQVTVSS” belongs “low polyreactivity”; to “QVQLVESGGGLVQAGGSLRLSCAASGSIFRPNVMGWYRQAPGKERELVAAITGSGGSTYYADSVKGRFTISRDNAKNTVYLQMNSLKPEDTAVYYCNARTVSRGRYTYDYWGQGTQVTVSS”, “low polyreactivity”; to “QVQLVESGGGLVQAGGSLRLSCAASGSIFRPYAMGWYRQAPGKEREFVAAITYGGGNTYYADSVKGRFTISRDNAKNTFYLQMNILKPEDTAVYYCNKLSRGFSPKYDYWGQGTQVTVSS”, “high polyreactivity”.

In the case of “QVQLVESGGGLVQAGGSLRLSCAASGSIFRPYAMGWYRQAPGKERELVAGITWGGSRTYYADSVKGRFTISRDNAKNTVYLQMNSLKPEDTAVYYCAAYPSTNGYIYYYWGQGSQVTVSS”, the “polyreactivity (PSR sort gate)” value is “high polyreactivity”. Regarding “QVQLVESGGGLVQAGGSLRLSCAASGSIFRPYAMGWYRQAPGKERELVATINQSGSSTYYADSVKGRFTISRDNAKNTVYLQKNSLKPEDTAVYYCAVVYTYHGYTYDYWGQGTQVTVSS”, the “polyreactivity (PSR sort gate)” value is “low polyreactivity”. Take “QVQLVESGGGLVQAGGSLRLSCAASGSIFRQYAMGWYRQAPGKERELVAAINYSGGNTYYADSVKGRFTISRDNAKNTVYLQMNSLKPEDTAVYYCAADSVRHFWWAYYYWGQGTQVTVSS”: the “polyreactivity (PSR sort gate)” value is listed as “low polyreactivity”. Consider “QVQLVESGGGLVQAGGSLRLSCAASGSIFRRNAMGWYRQAPGKDRELVAAITTRGSRTTYADSVKGRFTISRDNAKNTVYLQMNSMKPEDTAVYYCAARQHFSYSFHVAYDYWGQGTQVTVSS”, for which the “polyreactivity (PSR sort gate)” value was “high polyreactivity”.

On to “QVQLVESGGGLVQAGGSLRLSCAASGSIFRRYAMGGYRQAPGKERELVAAITSGDTTKYADSVKGRFTISRDNAKNTVYLQMNSLKPEDTAVYYCNKKGWPRFVHGFLRRDDYWGQGTQVTVSS”, for which the “polyreactivity (PSR sort gate)” value is “low polyreactivity”. Then “QVQLVESGGGLVQAGGSLRLSCAASGSIFRRYAMGWYRHAPGKEREFVAAITRSGGGTYYADSVKGRFTISRDNAKNTVSLQMNSLKPEDTAVYFCAKDVFVQRSRYPEGDYWGQGTQVTVSS”, with “high polyreactivity”. Turning to “QVQLVESGGGLVQAGGSLRLSCAASGSIFRRYAMGWYRKAPGKERELVAGISRGGGITYYADSVKGRFTISRDNAKNTVYLQMNSLKPEDTAVYYCAARIGATYWVDWTHRAYDYWGQGTQVTVSS”, the “polyreactivity (PSR sort gate)” value is on record as “high polyreactivity”. With “QVQLVESGGGLVQAGGSLRLSCAASGSIFRRYAMGWYRQAPGKERELVAAISFSGGSTYYADSVKGRFTISRDNAKNTVYLQMNSLKPEDTAVYYCAARSYAYSGDYWGQGTQVNVSS”, the “polyreactivity (PSR sort gate)” value was “high polyreactivity”. Then “QVQLVESGGGLVQAGGSLRLSCAASGSIFRRYAMGWYRQAPGKERELVAAISGSAGSTYYADSVKGRFTISRDNAKNTVYLQMNSLKPEDTAVYYCAADPDDGYDYWGQVTQVTVSS”, with “low polyreactivity”. Then “QVQLVESGGGLVQAGGSLRLSCAASGSIFRRYTMGWYRQAPGKERELVAAISRVGNTNYADSVKGRFTISRDNAKNTVYLQMNSLKPEDTAVYYCAARAIGYRYTPGLNYWGQGTQVTVSS”, with “high polyreactivity”.
